Target: T1, E-epitope tagged human RIP2 (human, UniProt O43353 1-540)
T1 construct: ORF cloned in pCAGGS-E, expressed in 293T cells; also called E-RIP2
Experiment: co-immunoprecipitation from 293T lysates, anti-Flag IP, anti-E immunoblot
Experimental: FIG. 4: Interactions of INCA with other CARD-containing proteins. Co-immunoprecipitation assays were performed using lysates from 293T cells that have been transiently transfected with plasmids encoding various epitope-tagged proteins as indicated, including Flag-INCA, E-INCA, E-procaspase-1, E-COP, E-ICEBERG, E-RIP2 and E-procaspase-2 CARD. Immunoprecipitates were prepared using anti-Flag antibody adsorbed to protein G-sepharose and analyzed by SDS-PAGE/immunoblotting using anti-E epitope tag antibody and chemoluminescence-based detection. Aliquots of the same lysates were also analyzed directly by SDS-PAGE/immunoblotting as indicated. IP, immunoprecipitation; WB: Western blotting.
293T is a human embryonal kidney carcinoma cell line. 293T cells were routinely transfected using the calcium phosphate precipitation method (O'Mahoney and Adams, 1994). Cells were seeded the day before transfection at 2×10⁵ cells/6-well. Cells were transfected for 4 h, washed and incubated for another 24 h before lysates were prepared by harvesting the cells and lysing them in ice-cold NP-40 lysis buffer (10 mM HEPES pH 7.4, 142.5 mM KCl, 0.2% NP-40, 5 mM EGTA), supplemented with 1 mM DTT, 12.5 mM β-glycerophosphate, 1 mM Na₃VO₄, 1 mM PMSF, and 1× protease inhibitor mix (Roche, Basel, Switzerland). […] Alternatively, lysates were analyzed directly by immunoblotting after normalization for total protein content. […]

T1 sequence (O43353 whole entry): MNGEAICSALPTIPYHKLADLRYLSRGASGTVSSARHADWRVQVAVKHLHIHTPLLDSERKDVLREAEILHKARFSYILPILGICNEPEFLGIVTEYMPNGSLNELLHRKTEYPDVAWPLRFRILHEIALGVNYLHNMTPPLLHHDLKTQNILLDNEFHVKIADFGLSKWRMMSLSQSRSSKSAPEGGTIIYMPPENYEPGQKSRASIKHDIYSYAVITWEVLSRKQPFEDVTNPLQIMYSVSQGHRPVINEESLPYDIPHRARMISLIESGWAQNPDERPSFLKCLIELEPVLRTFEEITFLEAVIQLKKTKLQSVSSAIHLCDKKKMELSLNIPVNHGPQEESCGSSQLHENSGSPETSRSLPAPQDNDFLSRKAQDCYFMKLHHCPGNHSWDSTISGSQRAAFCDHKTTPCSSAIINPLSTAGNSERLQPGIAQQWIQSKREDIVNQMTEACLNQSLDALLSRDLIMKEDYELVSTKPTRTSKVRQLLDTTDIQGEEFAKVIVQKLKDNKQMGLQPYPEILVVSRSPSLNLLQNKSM

B1: Flag-tagged INCA (Inhibitory CARD) (other, not shown: small tags and cut ends)
chain: MADKVLKEKRKQFIRSVGEGTINGLLGELLETRVLSQEEIEIVKCENATVMDKARALLDSVIRKGAPACQICITYICEEDSHLAGTLGLSAGPTSGNHLTTQDSQIVLPS
notes: Expressed in 293T cells (pCAGGS-Flag) for co-immunoprecipitation; Flag-tagged INCA also expressed stably in THP-1 cells from a retroviral vector; also called Flag-INCA
Does B1 bind?
Result: no binding

Source: patent US20080108546A1 (VLAAMS INTERUNIVERSITAIR INSTITUUT, published 2008)
